Assay results from patent US20100215682A1.

How the values were obtained:
[1] = biological target: HBsAg-gp120 hybrid virus-like particles, gp120 89.6 with loop C deletion (424-432 …, beta 20-21 loop) (hepatitis B virus; HIV-1 strain 89.6); test: ELISA, gp120-HBsAg particles coated on the plate; mean of six experiments
[2] = biological target: HBsAg-gp120 hybrid virus-like particles, gp120 89.6 with loop C deletion (424-432 …, beta 20-21 loop) (hepatitis B virus; HIV-1 strain 89.6); test: ELISA, gp120-HBsAg particles coated on the plate
[3] = biological target: HBsAg-gp120 hybrid virus-like particles, gp120 89.6 with loop C deletion (424-432 …, beta 20-21 loop) (hepatitis B virus; HIV-1 strain 89.6); test: ELISA, half maximal binding compared, gp120-HBsAg particles coated on the plate

Substance | fold increase of ELISA peak OD against 89.6 wild type [1] | fold increase of binding against 89.6 wild type [2] | shift in apparent affinity relative to 89.6 wild type [3] | peak OD as percent of the IIIB value (% of the IIIB value) [2]
monoclonal F105 (antibody) | 7.1 fold | > 10 fold | > 100 fold | 
monoclonal IgG1 b12 (antibody) | 2.6 fold | 3 fold |  | 80 to 100
